T1: LZTR1 R810W-FLAG (human, UniProt Q8N653 1-840)
T1 construct: Stably expressed in U87 cells by lentivirus; also called LZTR1-FLAG-R810W; LZTR1 RW; not shown: FLAG tag
T1 sequence (looked up): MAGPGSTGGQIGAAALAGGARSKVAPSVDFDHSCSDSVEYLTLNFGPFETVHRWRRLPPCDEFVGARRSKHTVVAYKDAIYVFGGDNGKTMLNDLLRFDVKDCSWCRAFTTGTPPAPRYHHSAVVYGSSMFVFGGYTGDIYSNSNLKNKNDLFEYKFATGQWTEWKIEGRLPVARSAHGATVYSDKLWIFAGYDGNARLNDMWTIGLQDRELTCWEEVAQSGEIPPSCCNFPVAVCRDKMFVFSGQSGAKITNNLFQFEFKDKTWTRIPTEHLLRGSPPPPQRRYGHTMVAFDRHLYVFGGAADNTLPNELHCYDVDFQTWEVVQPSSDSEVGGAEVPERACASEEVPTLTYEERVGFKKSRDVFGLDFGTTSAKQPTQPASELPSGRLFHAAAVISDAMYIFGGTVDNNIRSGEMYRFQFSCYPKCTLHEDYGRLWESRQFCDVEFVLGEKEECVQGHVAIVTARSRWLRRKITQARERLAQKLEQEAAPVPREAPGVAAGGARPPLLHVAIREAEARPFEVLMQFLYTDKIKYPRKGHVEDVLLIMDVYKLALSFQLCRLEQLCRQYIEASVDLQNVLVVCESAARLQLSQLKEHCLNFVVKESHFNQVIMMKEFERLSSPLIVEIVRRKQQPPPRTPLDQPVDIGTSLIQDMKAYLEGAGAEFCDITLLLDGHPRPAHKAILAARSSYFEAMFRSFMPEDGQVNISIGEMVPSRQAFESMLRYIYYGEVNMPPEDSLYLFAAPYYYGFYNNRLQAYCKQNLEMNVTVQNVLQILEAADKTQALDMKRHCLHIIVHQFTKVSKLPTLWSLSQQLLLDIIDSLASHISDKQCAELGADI

T2: LZTR1-FLAG (human, UniProt Q8N653 1-840)
T2 construct: Expressed in HEK 293T, HeLa or U87 cells; used as cell lysate; also called LZTR1 wild type-FLAG; LZTR1 WT; not shown: FLAG tag at the C-terminus
T2 sequence (looked up): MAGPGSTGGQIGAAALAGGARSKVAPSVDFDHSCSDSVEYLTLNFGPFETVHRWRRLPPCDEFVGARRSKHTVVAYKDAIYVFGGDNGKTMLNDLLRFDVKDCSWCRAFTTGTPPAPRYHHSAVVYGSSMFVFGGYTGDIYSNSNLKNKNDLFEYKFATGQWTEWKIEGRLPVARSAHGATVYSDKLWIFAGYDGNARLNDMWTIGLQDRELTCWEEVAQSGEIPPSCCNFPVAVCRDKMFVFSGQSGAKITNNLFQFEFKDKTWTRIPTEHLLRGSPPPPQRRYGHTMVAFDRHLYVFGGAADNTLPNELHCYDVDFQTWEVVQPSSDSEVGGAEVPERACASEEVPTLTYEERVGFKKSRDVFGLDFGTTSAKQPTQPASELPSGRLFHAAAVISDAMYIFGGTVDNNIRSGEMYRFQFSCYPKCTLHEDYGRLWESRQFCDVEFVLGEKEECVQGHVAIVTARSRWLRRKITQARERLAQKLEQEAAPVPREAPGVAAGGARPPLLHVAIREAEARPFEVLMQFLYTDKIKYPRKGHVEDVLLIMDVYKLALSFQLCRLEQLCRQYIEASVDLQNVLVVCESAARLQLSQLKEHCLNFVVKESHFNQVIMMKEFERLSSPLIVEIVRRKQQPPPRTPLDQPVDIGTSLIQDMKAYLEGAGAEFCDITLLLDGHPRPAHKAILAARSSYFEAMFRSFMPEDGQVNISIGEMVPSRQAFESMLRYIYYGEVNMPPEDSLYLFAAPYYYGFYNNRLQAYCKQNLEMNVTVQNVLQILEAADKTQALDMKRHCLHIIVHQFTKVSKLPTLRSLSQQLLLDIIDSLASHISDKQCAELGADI


Assays:
LZTR1 R810W-FLAG = biological target: T1, LZTR1 R810W-FLAG; test: IP/MS, LZTR1 R810W-FLAG, U87
Outline: (§1)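 Gel slices were reduced with 5 mM DTT, alkylated with 11 mM IAA and digested overnight at 37° C. with trypsin. Peptides were analysed on an Orbitrap Fusion Tribrid by LC-MS/MS.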

LZTR1-FLAG = biological target: T2, LZTR1-FLAG; test: IP/MS, LZTR1 wild type-FLAG, U87
Outline: as §1

Row | binding result (LZTR1 R810W-FLAG) | binding result (LZTR1-FLAG) | Binder
1 | binds | binds | UBXN6 (other, human, UniProt Q9BZV1 1-441, looked up) MKKFFQEFKADIKFKSAGPGQKLKESVGEKAHKEKPNQPAPRPPRQGPTNEAQMAAAAALARLEQKQSRAWGPTSQDTIRNQVRKELQAEATVSGSPEAPGTNVVSEPREEGSAHLAVPGVYFTCPLTGATLRKDQRDACIKEAILLHFSTDPVAASIMKIYTFNKDQDRVKLGVDTIAKYLDNIHLHPEEEKYRKIKLQNKVFQERINCLEGTHEFFEAIGFQKVLLPAQDQEDPEEFYVLSETTLAQPQSLERHKEQLLAAEPVRAKLDRQRRVFQPSPLASQFELPGDFFNLTAEEIKREQRLRSEAVERLSVLRTKAMREKEEQRGLRKYNYTLLRVRLPDGCLLQGTFYARERLGAVYGFVREALQSDWLPFELLASGGQKLSEDENLALNECGLVPSALLTFSWDMAVLEDIKAAGAEPDSILKPELLSAIEKLL
2 | binds | binds | UMPS (other, human, UniProt P11172 2-480, looked up) AVARAALGPLVTGLYDVQAFKFGDFVLKSGLSSPIYIDLRGIVSRPRLLSQVADILFQTAQNAGISFDTVCGVPYTALPLATVICSTNQIPMLIRRKETKDYGTKRLVEGTINPGETCLIIEDVVTSGSSVLETVEVLQKEGLKVTDAIVLLDREQGGKDKLQAHGIRLHSVCTLSKMLEILEQQKKVDAETVGRVKRFIQENVFVAANHNGSPLSIKEAPKELSFGARAELPRIHPVASKLLRLMQKKETNLCLSADVSLARELLQLADALGPSICMLKTHVDILNDFTLDVMKELITLAKCHEFLIFEDRKFADIGNTVKKQYEGGIFKIASWADLVNAHVVPGSGVVKGLQEVGLPLHRGCLLIAEMSSTGSLATGDYTRAAVRMAEEHSEFVVGFISGSRVSMKPEFLHLTPGVQLEAGGDNLGQQYNSPQEVIGKRGSDIIIVGRGIISAADRLEAAEMYRKAAWEAYLSRLGV
3 | binds | binds | UTP6 (other, human, UniProt Q9NYH9 1-597, looked up) MAEIIQERIEDRLPELEQLERIGLFSHAEIKAIIKKASDLEYKIQRRTLFKEDFINYVQYEINLLELIQRRRTRIGYSFKKDEIENSIVHRVQGVFQRASAKWKDDVQLWLSYVAFCKKWATKTRLSKVFSAMLAIHSNKPALWIMAAKWEMEDRLSSESARQLFLRALRFHPECPKLYKEYFRMELMHAEKLRKEKEEFEKASMDVENPDYSEEILKGELAWIIYKNSVSIIKGAEFHVSLLSIAQLFDFAKDLQKEIYDDLQALHTDDPLTWDYVARRELEIESQTEEQPTTKQAKAVEVGRKEERCCAVYEEAVKTLPTEAMWKCYITFCLERFTKKSNSGFLRGKRLERTMTVFRKAHELKLLSECQYKQLSVSLLCYNFLREALEVAVAGTELFRDSGTMWQLKLQVLIESKSPDIAMLFEEAFVHLKPQVCLPLWISWAEWSEGAKSQEDTEAVFKKALLAVIGADSVTLKNKYLDWAYRSGGYKKARAVFKSLQESRPFSVDFFRKMIQFEKEQESCNMANIREYYERALREFGSADSDLWMDYMKEELNHPLGRPENCGQIYWRAMKMLQGESAEAFVAKHAMHQTGHL
4 | binds | binds | UFL1 (other, human, UniProt O94874 2-794, looked up) ADAWEEIRRLAADFQRAQFAEATQRLSERNCIEIVNKLIAQKQLEVVHTLDGKEYITPAQISKEMRDELHVRGGRVNIVDLQQVINVDLIHIENRIGDIIKSEKHVQLVLGQLIDENYLDRLAEEVNDKLQESGQVTISELCKTYDLPGNFLTQALTQRLGRIISGHIDLDNRGVIFTEAFVARHKARIRGLFSAITRPTAVNSLISKYGFQEQLLYSVLEELVNSGRLRGTVVGGRQDKAVFVPDIYSRTQSTWVDSFFRQNGYLEFDALSRLGIPDAVSYIKKRYKTTQLLFLKAACVGQGLVDQVEASVEEAISSGTWVDIAPLLPTSLSVEDAAILLQQVMRAFSKQASTVVFSDTVVVSEKFINDCTELFRELMHQKAEKEMKNNPVHLITEEDLKQISTLESVSTSKKDKKDERRRKATEGSGSMRGGGGGNAREYKIKKVKKKGRKDDDSDDESQSSHTGKKKPEISFMFQDEIEDFLRKHIQDAPEEFISELAEYLIKPLNKTYLEVVRSVFMSSTTSASGTGRKRTIKDLQEEVSNLYNNIRLFEKGMKFFADDTQAALTKHLLKSVCTDITNLIFNFLASDLMMAVDDPAAITSEIRKKILSKLSEETKVALTKLHNSLNEKSIEDFISCLDSAAEACDIMVKRGDKKRERQILFQHRQALAEQLKVTEDPALILHLTSVLLFQFSTHSMLHAPGRCVPQIIAFLNSKIPEDQHALLVKYQGLVVKQLVSQSKKTGQGDYPLNNELDKEQEDVASTTRKELQELSSSIKDLVLKSRKSSVTEE

From patent US20250262210A1 (TRUSTEES OF COLUMBIA UNIVERSITY IN THE CITY OF NEW YORK, published 2025)
